Assay results from patent US20240301052A1 (LANOVA MEDICINES DEVELOPMENT, published 2024).

T1: human SLC34A2 (human, UniProt O95436 1-690)
T1 construct: whole, on cells; also called human solute carrier 34 A2; NaPi2b
T1 sequence (looked up): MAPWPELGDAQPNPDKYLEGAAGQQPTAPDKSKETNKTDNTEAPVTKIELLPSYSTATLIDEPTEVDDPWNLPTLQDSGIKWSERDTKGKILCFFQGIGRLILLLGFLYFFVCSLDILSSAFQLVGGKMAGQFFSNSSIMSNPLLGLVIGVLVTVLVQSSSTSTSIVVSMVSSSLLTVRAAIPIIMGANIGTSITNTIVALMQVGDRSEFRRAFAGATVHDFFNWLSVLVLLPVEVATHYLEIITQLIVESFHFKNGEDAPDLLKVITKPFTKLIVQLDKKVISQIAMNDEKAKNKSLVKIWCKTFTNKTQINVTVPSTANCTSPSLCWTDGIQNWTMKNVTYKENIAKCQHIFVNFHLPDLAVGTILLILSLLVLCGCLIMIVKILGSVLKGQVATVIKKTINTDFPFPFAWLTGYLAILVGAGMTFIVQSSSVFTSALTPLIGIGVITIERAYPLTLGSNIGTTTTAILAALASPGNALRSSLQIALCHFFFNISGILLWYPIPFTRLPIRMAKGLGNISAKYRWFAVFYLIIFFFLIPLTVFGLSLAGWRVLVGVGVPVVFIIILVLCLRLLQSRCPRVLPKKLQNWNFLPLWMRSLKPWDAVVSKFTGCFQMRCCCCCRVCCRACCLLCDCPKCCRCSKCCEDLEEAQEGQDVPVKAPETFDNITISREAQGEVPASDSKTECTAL


target: T1, human SLC34A2; assay: FACS, OVCAR3 cells

Binder | EC50 [nM] | Top (MFI)
63A11D5B4.p1.z6 hIgG1 (antibody, V domains shown, humanized hIgG1) VH: QVQLVQSGAEVKKPGASVKVSCKTSGYTFITYNMHWVRQAPGQGLEWIGAIYPGSGDTSYNQKFKGRVTMTADTSTSTVYMELSSLRSEDTAVYYCSISTIITTGAVDYWGQGTLVTVSS VL: DIQMTQSPSSLSTSVGDRVTITCKASQDVGTAVAWYQQKPGKSPKLLIYWTSTRHTGVPSRFSGSGSGTDFTLIISSLQPEDVATYYCQQYSRIPLTFGGGTKVEIK | 36.8 | 34600
63A11D5B4.p1.z4 hIgG1 (antibody, V domains shown, humanized hIgG1) VH: QVQLVQSGAEVKKPGASVKVSCKASGYTFITYNMHWVRQAPGQGLEWMGAIYPGSGDTSYNQKFKGRVTMTRDTSTSTVYMELSSLRSEDTAVYYCASSTIITTGAVDYWGQGTLVTVSS VL: DIVMTQSPSSLSTSVGDRVTITCKASQDVGTAVAWYQQKPGQSPKLLIYWTSTRHTGVPDRFTGSGSGTDFTLIIRSLQPEDVATYFCQQYSRIPLTFGSGTKVEIK | 18.1 | 29000
63A11D5B4.p1.z2 hIgG1 (antibody, V domains shown, humanized hIgG1) VH: QVQLVQSGAEVKKPGASVKVSCKASGYTFITYNMHWVRQAPGQGLEWMGAIYPGSGDTSYNQKFKGRVTMTRDTSTSTVYMELSSLRSEDTAVYYCASSTIITTGAVDYWGQGTLVTVSS VL: DIQMTQSPSSLSTSVGDRVTITCKASQDVGTAVAWYQQKPGKSPKLLIYWTSTRHTGVPSRFSGSGSGTDFTLIISSLQPEDVATYYCQQYSRIPLTFGGGTKVEIK | 20.6 | 28700
63A11D5B4.p1.z1 hIgG1 (antibody, V domains shown, humanized hIgG1) VH: QVQLVQSGAEVKKPGASVKVSCKASGYTFITYNMHWVRQAPGQGLEWMGAIYPGSGDTSYNQKFKGRVTMTRDTSTSTVYMELSSLRSEDTAVYYCASSTIITTGAVDYWGQGTLVTVSS VL: DIQMTQSPSSLSASVGDRVTITCKASQDVGTAVAWYQQKPGKVPKLLIYWTSTRHTGVPSRFSGSGSGTDFTLTISSLQPEDVATYYCQQYSRIPLTFGGGTKVEIK | 19.6 | 28000
63A11D5B4.p1.z7 hIgG1 (antibody, V domains shown, humanized hIgG1) VH: QVQLVQSGAEVKKPGASVKVSCKTSGYTFITYNMHWVRQAPGQGLEWIGAIYPGSGDTSYNQKFKGRVTMTADTSTSTVYMELSSLRSEDTAVYYCSISTIITTGAVDYWGQGTLVTVSS VL: DIQMTQSPSSLSTSVGDRVTITCKASQDVGTAVAWYQQKPGQSPKLLIYWTSTRHTGVPDRFSGSGSGTDFTLIIRSLQPEDVATYFCQQYSRIPLTFGGGTKVEIK | 61.1 | 41000

The next lines start with the values.

EC50 [nM] | Top (MFI) | Binder
11.4 | 29500 | 63A11D5B4.p1.z16 hIgG1 (antibody, V domains shown, humanized hIgG1) VH: QVQLQQSGAEVVKPGASVKMSCKTSGYTFITYNMHWVKQAPGQGREWIGAIYPGSGDTSYNQKFKGRATLTADKSTSTAYMELSSLRSEDTAVYYCSISTIITTGAVDYWGQGTSVTVSS VL: DIVMTQSPSSLSTSVGDRVTITCKASQDVGTAVAWYQQKPGQSPKLLIYWTSTRHTGVPDRFTGSGSGTDFTLIIRSLQPEDVATYFCQQYSRIPLTFGSGTKVEIK
16.4 | 32600 | 63A11D5B4.p1.z13 hIgG1 (antibody, V domains shown, humanized hIgG1) VH: QVQLQQSGAEVVKPGASVKMSCKTSGYTFITYNMHWVKQAPGQGREWIGAIYPGSGDTSYNQKFKGRATLTADKSTSTAYMELSSLRSEDTAVYYCSISTIITTGAVDYWGQGTSVTVSS VL: DIQMTQSPSSLSASVGDRVTITCKASQDVGTAVAWYQQKPGKVPKLLIYWTSTRHTGVPSRFSGSGSGTDFTLTISSLQPEDVATYYCQQYSRIPLTFGGGTKVEIK
17.9 | 28600 | 63A11D5B4.p1.z3 hIgG1 (antibody, V domains shown, humanized hIgG1) VH: QVQLVQSGAEVKKPGASVKVSCKASGYTFITYNMHWVRQAPGQGLEWMGAIYPGSGDTSYNQKFKGRVTMTRDTSTSTVYMELSSLRSEDTAVYYCASSTIITTGAVDYWGQGTLVTVSS VL: DIQMTQSPSSLSTSVGDRVTITCKASQDVGTAVAWYQQKPGQSPKLLIYWTSTRHTGVPDRFSGSGSGTDFTLIIRSLQPEDVATYFCQQYSRIPLTFGGGTKVEIK
12.3 | 29800 | 63A11D5B4.p1.z10 hIgG1 (antibody, V domains shown, humanized hIgG1) VH: QVQLVQSGAEVVKPGASVKMSCKTSGYTFITYNMHWVRQAPGQGLEWIGAIYPGSGDTSYNQKFKGRVTLTADKSTSTAYMELSSLRSEDTAVYYCSISTIITTGAVDYWGQGTLVTVSS VL: DIQMTQSPSSLSTSVGDRVTITCKASQDVGTAVAWYQQKPGKSPKLLIYWTSTRHTGVPSRFSGSGSGTDFTLIISSLQPEDVATYYCQQYSRIPLTFGGGTKVEIK
16.1 | 32600 | 63A11D5B4.p1.z14 hIgG1 (antibody, V domains shown, humanized hIgG1) VH: QVQLQQSGAEVVKPGASVKMSCKTSGYTFITYNMHWVKQAPGQGREWIGAIYPGSGDTSYNQKFKGRATLTADKSTSTAYMELSSLRSEDTAVYYCSISTIITTGAVDYWGQGTSVTVSS VL: DIQMTQSPSSLSTSVGDRVTITCKASQDVGTAVAWYQQKPGKSPKLLIYWTSTRHTGVPSRFSGSGSGTDFTLIISSLQPEDVATYYCQQYSRIPLTFGGGTKVEIK
11.7 | 31700 | 63A11D5B4.p1.z12 hIgG1 (antibody, V domains shown, humanized hIgG1) VH: QVQLVQSGAEVVKPGASVKMSCKTSGYTFITYNMHWVRQAPGQGLEWIGAIYPGSGDTSYNQKFKGRVTLTADKSTSTAYMELSSLRSEDTAVYYCSISTIITTGAVDYWGQGTLVTVSS VL: DIVMTQSPSSLSTSVGDRVTITCKASQDVGTAVAWYQQKPGQSPKLLIYWTSTRHTGVPDRFTGSGSGTDFTLIIRSLQPEDVATYFCQQYSRIPLTFGSGTKVEIK
14.2 | 27900 | 63A11D5B4.p1.z8 hIgG1 (antibody, V domains shown, humanized hIgG1) VH: QVQLVQSGAEVKKPGASVKVSCKTSGYTFITYNMHWVRQAPGQGLEWIGAIYPGSGDTSYNQKFKGRVTMTADTSTSTVYMELSSLRSEDTAVYYCSISTIITTGAVDYWGQGTLVTVSS VL: DIVMTQSPSSLSTSVGDRVTITCKASQDVGTAVAWYQQKPGQSPKLLIYWTSTRHTGVPDRFTGSGSGTDFTLIIRSLQPEDVATYFCQQYSRIPLTFGSGTKVEIK
10.3 | 27700 | 63A11D5B4.p1.z11 hIgG1 (antibody, V domains shown, humanized hIgG1) VH: QVQLVQSGAEVVKPGASVKMSCKTSGYTFITYNMHWVRQAPGQGLEWIGAIYPGSGDTSYNQKFKGRVTLTADKSTSTAYMELSSLRSEDTAVYYCSISTIITTGAVDYWGQGTLVTVSS VL: DIQMTQSPSSLSTSVGDRVTITCKASQDVGTAVAWYQQKPGQSPKLLIYWTSTRHTGVPDRFSGSGSGTDFTLIIRSLQPEDVATYFCQQYSRIPLTFGGGTKVEIK

target: T1, human SLC34A2; assay: FACS, HEK293/human SLC34A2 cells
Protocol: (§1) Briefly, OVCAR3 cells or HEK293 cells expressing human SLC34A2 were incubated with chimeric antibodies (from 200 nM, 4 folds dilution, 8 points). After incubation at 4° C. for 60 minutes, the cells were washed with FACS buffer twice, then stained with fluorescent conjugated secondary antibody at 4° C. for 30 minutes. After that the cells were washed twice and analyzed by flow cytometry.

EC50 [nM] | Top (MFI) | Binder
2.82 | 107000 | xi67C9G11 hIgG1 (antibody, V domains shown, chimeric, hIgG1) VH: DVKLVESGGGLVKLGGSLKLSCAASGFTFSSYFMSWIRQTPEKRVDLVAVINSNGGSTYSPDTVKGRFTISRDNAKNTLYLQMTSLKSEDTALYYCARHFYSYDGAWFPYWGQGTLVTVSA VL: DIVMTQSHKFMSTLVGDRVSITCKASQDVSTSVAWYQQKPGQSPKLLIYWASTRHTGVPDRFTGSGSGTDFTLTISSVQAEDLALYYCQQHHSTPITFGVGTKLELK
378 | 128000 | xi62C10B3D2 hIgG1 (antibody, V domains shown, chimeric, hIgG1) VH: QVHQQQSGPELVKPGASVRISCKASGYTFTSYYIHWVKQRPGQGLEWIGCIYPGNLFTKYNEKFKDKATLTADTSSTTAYMHLSSLTSEDSAVYFCARFLNWNAWYFDVWGAGTTVSVSS VL: DVLMTQTPLSLPVSLGDQASISCRSSQSIEHSNGNTNLEWYLQKPGQSPRLLIYKVSNRFSGVPDRFSGSGSGTDFTLKITGVEAEDLGVYYCFQGSHFPWTFGGGTKLEIK

target: T1, human SLC34A2; assay: FACS, OVCAR3 cells; remark: another data set of the same source
Protocol: In this example, cell based binding of chimeric antibodies (hIgG1) prepared from the murine antibodies on human SLC34A2 expressing cells were assessed using flow cytometry.
as §1

EC50 [nM] | Top (MFI) | Binder
4.67 | 41000 | xi67C9G11 hIgG1 (antibody, V domains shown, chimeric, hIgG1) VH: DVKLVESGGGLVKLGGSLKLSCAASGFTFSSYFMSWIRQTPEKRVDLVAVINSNGGSTYSPDTVKGRFTISRDNAKNTLYLQMTSLKSEDTALYYCARHFYSYDGAWFPYWGQGTLVTVSA VL: DIVMTQSHKFMSTLVGDRVSITCKASQDVSTSVAWYQQKPGQSPKLLIYWASTRHTGVPDRFTGSGSGTDFTLTISSVQAEDLALYYCQQHHSTPITFGVGTKLELK
408 | 29500 | xi62C10B3D2 hIgG1 (antibody, V domains shown, chimeric, hIgG1) VH: QVHQQQSGPELVKPGASVRISCKASGYTFTSYYIHWVKQRPGQGLEWIGCIYPGNLFTKYNEKFKDKATLTADTSSTTAYMHLSSLTSEDSAVYFCARFLNWNAWYFDVWGAGTTVSVSS VL: DVLMTQTPLSLPVSLGDQASISCRSSQSIEHSNGNTNLEWYLQKPGQSPRLLIYKVSNRFSGVPDRFSGSGSGTDFTLKITGVEAEDLGVYYCFQGSHFPWTFGGGTKLEIK
